The term IC50 denotes the concentration at which inhibition is half-maximal. Read a high IC50 as a need for much substance. For orientation: Kd means the equilibrium constant for the complex coming apart.

In assay [1] the target is human EGF-r expressed on the surface of human carcinoma cells (A431, SW948) (human) (UniProt P00533). Put plainly: cell-based or functional assay.
The target is the same in assay [2]. Put plainly: inhibition of [125I]EGF (0.1 nM) binding to A431 cells.
Assay [3] shares this target. Put plainly: inhibition of [125I]EGF binding to SW948 cells.
The target in assay [4] is Soluble EGF-r purified from A431 cell membranes (Sigma, E-3641) (human) (UniProt P00533). The experiment in a line: BIAcore, solid phase, antigen immobilised at 228 RU. On the technique in general: Surface plasmon resonance follows binding to a sensor surface in real time, without labels.

As to murine monoclonal antibody 528, the IC50 of inhibition of A431 cell proliferation in assay [1] amounted to 0.66 nM. For the same substance, the 50% inhibitory concentration (IC50) in assay [2] was determined as 15.2 nM.

“E7.6.3 antibody (secreted by the hybridoma E7.6.3)”: in assay [1], the IC50 of inhibition of A431 cell proliferation is 0.125 nM, the inhibition of EGF-induced tyrosine phosphorylation of EGFr in A431 cells was determined as 133 nM and the inhibition of SW948 cell growth in vitro was found to be 100%. Besides, the half-inhibitory concentration (IC50) in assay [3] was determined as 0.9 nM. This substance also gave a dissociation constant (Kd) in assay [4] of 0.057 nM. For the same substance, in assay [2], the IC50 came out at 3 nM.

Values taken from patent US20020173629A1.
